This note sets out measurements from paper PMC2610489 (Developmental cell, 2008).

This assay has as its target T1, Homothorax (Hth) (Drosophila, UniProt O46339 1-487).
T1 sequence (looked up): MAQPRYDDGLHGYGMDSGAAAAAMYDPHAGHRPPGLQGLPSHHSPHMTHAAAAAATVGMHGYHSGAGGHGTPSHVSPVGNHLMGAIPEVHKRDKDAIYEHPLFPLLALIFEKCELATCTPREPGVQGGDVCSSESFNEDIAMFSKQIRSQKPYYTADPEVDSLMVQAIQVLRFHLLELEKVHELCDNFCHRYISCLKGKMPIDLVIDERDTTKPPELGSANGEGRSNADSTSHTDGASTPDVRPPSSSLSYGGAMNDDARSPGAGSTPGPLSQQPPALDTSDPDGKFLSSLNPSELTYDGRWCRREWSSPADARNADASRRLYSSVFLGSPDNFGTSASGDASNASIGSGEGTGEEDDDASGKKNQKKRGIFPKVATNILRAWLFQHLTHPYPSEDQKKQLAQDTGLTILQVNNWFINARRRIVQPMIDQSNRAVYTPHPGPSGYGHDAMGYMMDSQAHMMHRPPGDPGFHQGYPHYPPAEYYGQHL
Description: native gel or EMSA.

B1: Extradenticle (Exd) (natural protein, Drosophila, UniProt P40427 1-376, looked up)
chain: MEDPNRMLAHTGGMMAPQGYGLSGQDDGQNAGSENEVRKQKDIGEILQQIMSISEQSLDEAQARKHTLNCHRMKPALFSVLCEIKEKTVLSIRNTQEEEPPDPQLMRLDNMLIAEGVAGPEKGGGGAAAASAAAASQGGSLSIDGADNAIEHSDYRAKLAQIRQIYHQELEKYEQACNEFTTHVMNLLREQSRTRPITPKEIERMVQIIHKKFSSIQMQLKQSTCEAVMILRSRFLDARRKRRNFSKQASEILNEYFYSHLSNPYPSEEAKEELARKCGITVSQVSNWFGNKRIRYKKNIGKAQEEANLYAAKKAAGASPYSMAGPPSGTTTPMMSPAPPQDSMGYPMGSGGYDQQQPYDNSMGGYDPNLHQDLSP
For B1, the binding result was “binds”.
